Kd data for one molecule are collected here from paper PMC8517284 (EBioMedicine, 2021).

As usually defined, the Kd is the concentration at which binding is half-saturated.

The target in this test is human integrin αvβ3 (R&D Systems, 3050-AV-050) (human, UniProt P06756 31-1048; P05106 27-718). Kind of test: SPR. (In general: In SPR one partner is held on a chip, and binding of the other changes the refractive index at the surface.)

B1: GFP-tagged full-length recombinant human D3 (1-304 aa), D3^FL (enzyme)
chain: MPRQATSRLVVGEGEGSQGASGPAATMLRSLLLHSLRLCAQTASCLVLFPRFLGTAFMLWLLDFLCIRKHFLGRRRRGQPEPEVELNSEGEEVPPDDPPICVSDDNRLCTLASLKAVWHGQKLDFFKQAHEGGPAPNSEVVLPDGFQSQHILDYAQGNRPLVLNFGSCTCPPFMARMSAFQRLVTKYQRDVDFLIIYIEEAHPSDGWVTTDSPYIIPQHRSLEDRVSAARVLQQGAPGCALVLDTMANSSSSAYGAYFERLYVIQSGTIMYQGGRGPDGYQVSELRTWLERYDEQLHGARPRRV
Molecule B1 displayed a Kd of 2110 nM.
